Data: patent US10941182 (Amgen, dated 2021)
Read-outs that look alike come from different tables or passages of the source. Starred links: 1 amine or outer side, 2 acyl side, 3 side chain; linkers in the order of their positions; H or OH if unused. Non-standard residues stand in square brackets, D forms with d. Primed or numbered codes have the meaning given here. No end group written: not given here. *: point of attachment. dBip = N[C@H](Cc1ccc(-c2ccccc2)cc1)C(=O)O; BhLeu = source's own code, no definition; BhPhe = source's own code, no definition; Oic = O=C(O)[C@@H]1C[C@@H]2CCCC[C@@H]2N1; Phe(4-Cl) = N[C@@H](Cc1ccc(Cl)cc1)C(=O)O; dPhe(4-Cl) = N[C@H](Cc1ccc(Cl)cc1)C(=O)O; Phe(4-I) = N[C@@H](Cc1ccc(I)cc1)C(=O)O; γGlu = O=C(O)[C@H](CCC(=O)[*:2])N[*:1]; d1Nal = N[C@H](Cc1cccc2ccccc12)C(=O)O; NMeR = CN[C@@H](CCCNC(=N)N)C(=O)O; Tridecanoyl = CCCCCCCCCCCCC(=O)*; hArg = N=C(N)NCCCC[C@H](N)C(=O)O; Cha = N[C@@H](CC1CCCCC1)C(=O)O; NMeL = CN[C@@H](CC(C)C)C(=O)O; AC4Abu″ = not defined here; code O = not defined here; Nle = CCCC[C@H](N)C(=O)O; AEEA = NCCOCCOCC(=O)O

T1: rat APJ receptor (rat, UniProt Q9JHG3 1-377)
T1 sequence (looked up): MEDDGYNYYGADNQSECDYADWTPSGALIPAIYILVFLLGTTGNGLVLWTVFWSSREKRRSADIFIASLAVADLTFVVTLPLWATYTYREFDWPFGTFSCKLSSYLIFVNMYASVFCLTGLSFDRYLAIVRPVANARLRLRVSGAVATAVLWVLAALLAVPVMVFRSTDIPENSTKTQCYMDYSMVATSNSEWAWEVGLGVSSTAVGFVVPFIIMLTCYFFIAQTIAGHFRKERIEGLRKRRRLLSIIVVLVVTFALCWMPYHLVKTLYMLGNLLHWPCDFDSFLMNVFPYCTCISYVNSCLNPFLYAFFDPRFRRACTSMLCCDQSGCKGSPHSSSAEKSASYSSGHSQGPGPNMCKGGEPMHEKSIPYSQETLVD

T2: human APJ receptor (human, UniProt P35414 1-380)
T2 sequence (looked up): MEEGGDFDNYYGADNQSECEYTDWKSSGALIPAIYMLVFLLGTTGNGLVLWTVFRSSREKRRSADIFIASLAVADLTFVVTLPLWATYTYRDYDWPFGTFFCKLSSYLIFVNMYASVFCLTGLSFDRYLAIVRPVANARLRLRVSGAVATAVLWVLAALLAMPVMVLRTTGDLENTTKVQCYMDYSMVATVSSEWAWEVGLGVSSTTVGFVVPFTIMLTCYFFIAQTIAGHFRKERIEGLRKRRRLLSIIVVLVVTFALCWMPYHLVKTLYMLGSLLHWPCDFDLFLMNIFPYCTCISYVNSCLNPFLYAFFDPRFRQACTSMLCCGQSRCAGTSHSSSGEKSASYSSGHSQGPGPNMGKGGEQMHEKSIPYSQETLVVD

T3: rat APJ receptor (rat, UniProt Q9JHG3 1-377)
T3 sequence (looked up): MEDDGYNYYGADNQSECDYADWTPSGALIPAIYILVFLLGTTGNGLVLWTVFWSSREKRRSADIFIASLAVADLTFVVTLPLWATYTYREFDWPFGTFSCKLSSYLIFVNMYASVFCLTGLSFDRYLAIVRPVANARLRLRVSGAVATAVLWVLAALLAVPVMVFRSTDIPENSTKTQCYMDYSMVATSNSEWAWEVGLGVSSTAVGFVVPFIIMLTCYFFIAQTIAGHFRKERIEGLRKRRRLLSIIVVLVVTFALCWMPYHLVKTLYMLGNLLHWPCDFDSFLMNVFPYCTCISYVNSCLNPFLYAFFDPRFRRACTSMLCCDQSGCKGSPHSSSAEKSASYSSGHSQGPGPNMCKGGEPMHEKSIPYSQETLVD


Columns and labels:
Test in all cases: cell-based or functional assay
rat APJ receptor [1] = molecular target: T1, rat APJ receptor
human APJ receptor = molecular target: T2, human APJ receptor
rat APJ receptor [2] = molecular target: T3, rat APJ receptor; remark: listed apart in the source

Row | Binder | EC50 Rat APJ Receptor (rat APJ receptor [1]) | EC50 Human APJ Receptor (human APJ receptor) | EC50 Rat APJ Receptor (rat APJ receptor [2])
1 | Tridecanoyl-[AC4Abu″][AEEA][AEEA][hArg]Q[dR]P[NMeR][Cha]SHKG[Oic][Nle][d1Nal]-OH (reading uncertain) [apelin polypeptide SEQ ID NO: 165] | 30.3 nM |  | 
2 | Tridecanoyl-[AC4Abu″][AEEA][AEEA][hArg]Q[dR]P[NMeR][Cha]SHKG[Oic][Nle]P[dPhe(4-Cl)]-OH (reading uncertain) [apelin polypeptide SEQ ID NO: 230] | 13.8 nM |  | 
3 | [code O][BhPhe][hArg][hArg]Q[hArg]P[hArg][Cha]SHKG[Oic][Nle]P[Phe(4-Cl)] (reading uncertain; also: printed as O[BhPhe][hArg][hArg]Q[hArg]P[hArg][Cha]SHKG[Oic][Nle]P[4-Cl-F]) [apelin polypeptide SEQ ID NO: 686] | 0.188 nM |  | 
4 | [code O]F[hArg][hArg][BhLeu][hArg]P[hArg][Cha]SHKG[Oic][Nle]P[Phe(4-Cl)] (reading uncertain; also: printed as OF[hArg][hArg][BhLeu][hArg]P[hArg][Cha]SHKG[Oic][Nle]P[4-Cl-F]) [apelin polypeptide SEQ ID NO: 692] | 0.503 nM |  | 
5 | Tridecanoyl-[γGlu][AEEA][AEEA][hArg][dR]Q[hArg]PK[NMeL]SA[Nle]G[Oic][Phe(4-I)]P[dBip]-OH (SMILES CCCCCCCCCCCCC(=O)N[C@@H](CCC(=O)NCCOCCOCC(=O)NCCOCCOCC(=O)N[C@@H](CCCCNC(=N)N)C(=O)N[C@H](CCCNC(=N)N)C(=O)N[C@@H](CCC(N)=O)C(=O)N[C@@H](CCCCNC(=N)N)C(=O)N1CCC[C@H]1C(=O)N[C@@H](CCCCN)C(=O)N(C)[C@@H](CC(C)C)C(=O)N[C@@H](CO)C(=O)N[C@@H](C)C(=O)N[C@@H](CCCC)C(=O)NCC(=O)N1[C@H](C(=O)N[C@@H](Cc2ccc(I)cc2)C(=O)N2CCC[C@H]2C(=O)N[C@H](Cc2ccc(-c3ccccc3)cc2)C(=O)O)C[C@@H]2CCCC[C@@H]21)C(=O)O) [SEQ ID NO: 325] |  | 3.96 nM | 4.76 nM
6 | Tridecanoyl-[γGlu][AEEA][AEEA][hArg][dR]Q[hArg]PK[NMeL]SH[Nle]G[Oic][Phe(4-I)]P[dBip]-OH (SMILES CCCCCCCCCCCCC(=O)N[C@@H](CCC(=O)NCCOCCOCC(=O)NCCOCCOCC(=O)N[C@@H](CCCCNC(=N)N)C(=O)N[C@H](CCCNC(=N)N)C(=O)N[C@@H](CCC(N)=O)C(=O)N[C@@H](CCCCNC(=N)N)C(=O)N1CCC[C@H]1C(=O)N[C@@H](CCCCN)C(=O)N(C)[C@@H](CC(C)C)C(=O)N[C@@H](CO)C(=O)N[C@@H](Cc1c[nH]cn1)C(=O)N[C@@H](CCCC)C(=O)NCC(=O)N1[C@H](C(=O)N[C@@H](Cc2ccc(I)cc2)C(=O)N2CCC[C@H]2C(=O)N[C@H](Cc2ccc(-c3ccccc3)cc2)C(=O)O)C[C@@H]2CCCC[C@@H]21)C(=O)O) [SEQ ID NO: 313] |  | 14.8 nM | 10.4 nM
7 | Tridecanoyl-[γGlu][AEEA][AEEA][hArg][dR]Q[hArg]P[dR][NMeL]AA[Nle]G[Oic][Phe(4-I)]P[dBip]-OH (SMILES CCCCCCCCCCCCC(=O)N[C@@H](CCC(=O)NCCOCCOCC(=O)NCCOCCOCC(=O)N[C@@H](CCCCNC(=N)N)C(=O)N[C@H](CCCNC(=N)N)C(=O)N[C@@H](CCC(N)=O)C(=O)N[C@@H](CCCCNC(=N)N)C(=O)N1CCC[C@H]1C(=O)N[C@H](CCCNC(=N)N)C(=O)N(C)[C@@H](CC(C)C)C(=O)N[C@@H](C)C(=O)N[C@@H](C)C(=O)N[C@@H](CCCC)C(=O)NCC(=O)N1[C@H](C(=O)N[C@@H](Cc2ccc(I)cc2)C(=O)N2CCC[C@H]2C(=O)N[C@H](Cc2ccc(-c3ccccc3)cc2)C(=O)O)C[C@@H]2CCCC[C@@H]21)C(=O)O) [SEQ ID NO: 330] |  | 39.7 nM | 56.1 nM
8 | Tridecanoyl-[γGlu][AEEA][AEEA][hArg][dR]Q[hArg]P[dR][NMeL]AH[Nle]G[Oic][Phe(4-I)]P[dBip]-OH (SMILES CCCCCCCCCCCCC(=O)N[C@@H](CCC(=O)NCCOCCOCC(=O)NCCOCCOCC(=O)N[C@@H](CCCCNC(=N)N)C(=O)N[C@H](CCCNC(=N)N)C(=O)N[C@@H](CCC(N)=O)C(=O)N[C@@H](CCCCNC(=N)N)C(=O)N1CCC[C@H]1C(=O)N[C@H](CCCNC(=N)N)C(=O)N(C)[C@@H](CC(C)C)C(=O)N[C@@H](C)C(=O)N[C@@H](Cc1c[nH]cn1)C(=O)N[C@@H](CCCC)C(=O)NCC(=O)N1[C@H](C(=O)N[C@@H](Cc2ccc(I)cc2)C(=O)N2CCC[C@H]2C(=O)N[C@H](Cc2ccc(-c3ccccc3)cc2)C(=O)O)C[C@@H]2CCCC[C@@H]21)C(=O)O) [SEQ ID NO: 318] |  | 7.44 nM | 45.9 nM
9 | Tridecanoyl-[γGlu][AEEA][AEEA][hArg][dR]Q[hArg]P[dR][NMeL]SA[Nle]G[Oic][Phe(4-I)]P[dBip]-OH (SMILES CCCCCCCCCCCCC(=O)N[C@@H](CCC(=O)NCCOCCOCC(=O)NCCOCCOCC(=O)N[C@@H](CCCCNC(=N)N)C(=O)N[C@H](CCCNC(=N)N)C(=O)N[C@@H](CCC(N)=O)C(=O)N[C@@H](CCCCNC(=N)N)C(=O)N1CCC[C@H]1C(=O)N[C@H](CCCNC(=N)N)C(=O)N(C)[C@@H](CC(C)C)C(=O)N[C@@H](CO)C(=O)N[C@@H](C)C(=O)N[C@@H](CCCC)C(=O)NCC(=O)N1[C@H](C(=O)N[C@@H](Cc2ccc(I)cc2)C(=O)N2CCC[C@H]2C(=O)N[C@H](Cc2ccc(-c3ccccc3)cc2)C(=O)O)C[C@@H]2CCCC[C@@H]21)C(=O)O) [SEQ ID NO: 324] |  | 14.9 nM | 20.4 nM
10 | Tridecanoyl-[γGlu][AEEA][AEEA][hArg][dR]Q[hArg]P[dR][NMeL]SH[Nle]G[Oic][Phe(4-I)]P[dBip]-OH (SMILES CCCCCCCCCCCCC(=O)N[C@@H](CCC(=O)NCCOCCOCC(=O)NCCOCCOCC(=O)N[C@@H](CCCCNC(=N)N)C(=O)N[C@H](CCCNC(=N)N)C(=O)N[C@@H](CCC(N)=O)C(=O)N[C@@H](CCCCNC(=N)N)C(=O)N1CCC[C@H]1C(=O)N[C@H](CCCNC(=N)N)C(=O)N(C)[C@@H](CC(C)C)C(=O)N[C@@H](CO)C(=O)N[C@@H](Cc1c[nH]cn1)C(=O)N[C@@H](CCCC)C(=O)NCC(=O)N1[C@H](C(=O)N[C@@H](Cc2ccc(I)cc2)C(=O)N2CCC[C@H]2C(=O)N[C@H](Cc2ccc(-c3ccccc3)cc2)C(=O)O)C[C@@H]2CCCC[C@@H]21)C(=O)O) [SEQ ID NO: 312] |  | 13.6 nM | 10.6 nM
11 | Tridecanoyl-[γGlu][AEEA][AEEA][hArg][dR]Q[Nle]P[dR][NMeL]AAKG[Oic][Phe(4-I)]P[dBip]-OH (SMILES CCCCCCCCCCCCC(=O)N[C@@H](CCC(=O)NCCOCCOCC(=O)NCCOCCOCC(=O)N[C@@H](CCCCNC(=N)N)C(=O)N[C@H](CCCNC(=N)N)C(=O)N[C@@H](CCC(N)=O)C(=O)N[C@@H](CCCC)C(=O)N1CCC[C@H]1C(=O)N[C@H](CCCNC(=N)N)C(=O)N(C)[C@@H](CC(C)C)C(=O)N[C@@H](C)C(=O)N[C@@H](C)C(=O)N[C@@H](CCCCN)C(=O)NCC(=O)N1[C@H](C(=O)N[C@@H](Cc2ccc(I)cc2)C(=O)N2CCC[C@H]2C(=O)N[C@H](Cc2ccc(-c3ccccc3)cc2)C(=O)O)C[C@@H]2CCCC[C@@H]21)C(=O)O) [SEQ ID NO: 334] |  | 34.1 nM | 44.7 nM
12 | Tridecanoyl-[γGlu][AEEA][AEEA][hArg][dR]Q[Nle]P[dR][NMeL]AHKG[Oic][Phe(4-I)]P[dBip]-OH (SMILES CCCCCCCCCCCCC(=O)N[C@@H](CCC(=O)NCCOCCOCC(=O)NCCOCCOCC(=O)N[C@@H](CCCCNC(=N)N)C(=O)N[C@H](CCCNC(=N)N)C(=O)N[C@@H](CCC(N)=O)C(=O)N[C@@H](CCCC)C(=O)N1CCC[C@H]1C(=O)N[C@H](CCCNC(=N)N)C(=O)N(C)[C@@H](CC(C)C)C(=O)N[C@@H](C)C(=O)N[C@@H](Cc1c[nH]cn1)C(=O)N[C@@H](CCCCN)C(=O)NCC(=O)N1[C@H](C(=O)N[C@@H](Cc2ccc(I)cc2)C(=O)N2CCC[C@H]2C(=O)N[C@H](Cc2ccc(-c3ccccc3)cc2)C(=O)O)C[C@@H]2CCCC[C@@H]21)C(=O)O) [SEQ ID NO: 322] |  | 16.3 nM | 26.5 nM
